Patent US20250218531A1 (ABSCI, published 2025)
Residue numbers refer to the chain shown, from its start. Where “and” joins values, the source holds several entries; their conditions need not be identical. Equal entries are not always repeated.

B1: Trastuzumab HCDR3 variant ARYYGYYYAFDY (Fab, V domains shown)
VH: EVQLVESGGGLVQPGGSLRLSCAASGFNIKDTYIHWVRQAPGKGLEWVARIYPTNGYTRYADSVKGRFTISADTSKNTAYLQMNSLRAEDTAVYYCARYYGYYYAFDYWGQGTLVTVSS
VL: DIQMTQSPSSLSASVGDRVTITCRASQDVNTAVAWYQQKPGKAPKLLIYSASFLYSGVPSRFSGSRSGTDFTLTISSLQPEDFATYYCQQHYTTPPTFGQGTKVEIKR
B2: Trastuzumab HCDR3 variant AANAAIFAAWGA (Fab, V domains shown)
VH: B1 VH with R98A, Y99N, Y100A, G101A, Y102I, Y103F, Y104A, F106W, D107G, Y108A
VL: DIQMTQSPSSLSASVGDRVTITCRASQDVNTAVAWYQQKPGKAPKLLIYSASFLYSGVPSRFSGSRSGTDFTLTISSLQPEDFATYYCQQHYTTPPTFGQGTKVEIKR
B3: Trastuzumab HCDR3 variant ARGYYYYFYYNY (Fab, V domains shown)
VH: B1 VH with Y99G, G101Y, Y104F, A105Y, F106Y, D107N
VL: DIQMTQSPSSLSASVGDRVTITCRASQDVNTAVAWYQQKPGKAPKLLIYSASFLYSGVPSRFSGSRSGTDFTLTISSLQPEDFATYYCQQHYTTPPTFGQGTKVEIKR
B4: Trastuzumab HCDR3 variant ARWRDYYYYFDY (Fab, V domains shown)
VH: B1 VH with Y99W, Y100R, G101D, A105Y
VL: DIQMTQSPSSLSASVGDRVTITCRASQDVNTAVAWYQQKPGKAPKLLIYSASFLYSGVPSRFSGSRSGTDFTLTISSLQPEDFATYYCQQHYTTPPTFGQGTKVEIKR
B5: Trastuzumab HCDR3 variant ARSYYGAYYFDY (Fab, V domains shown)
VH: B1 VH with Y99S, G101Y, Y102G, Y103A, A105Y
VL: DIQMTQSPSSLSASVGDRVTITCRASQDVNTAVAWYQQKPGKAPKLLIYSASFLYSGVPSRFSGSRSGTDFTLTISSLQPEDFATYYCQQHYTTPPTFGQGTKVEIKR
B6: Trastuzumab HCDR3 variant AGYWYGSYSFDY (Fab, V domains shown)
VH: B1 VH with R98G, Y100W, G101Y, Y102G, Y103S, A105S
VL: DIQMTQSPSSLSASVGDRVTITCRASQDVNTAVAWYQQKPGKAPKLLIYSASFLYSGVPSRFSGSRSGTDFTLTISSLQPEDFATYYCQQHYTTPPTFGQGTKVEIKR
B7: Trastuzumab HCDR3 variant ARGYYYYQWYYY (Fab, V domains shown)
VH: B1 VH with Y99G, G101Y, Y104Q, A105W, F106Y, D107Y
VL: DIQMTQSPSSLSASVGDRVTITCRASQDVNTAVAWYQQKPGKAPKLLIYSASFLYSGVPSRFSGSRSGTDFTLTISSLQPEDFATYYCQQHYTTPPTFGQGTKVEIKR
B8: Trastuzumab HCDR3 variant AASADFMYGVIR (Fab, V domains shown)
VH: B1 VH with R98A, Y99S, Y100A, G101D, Y102F, Y103M, A105G, F106V, D107I, Y108R
VL: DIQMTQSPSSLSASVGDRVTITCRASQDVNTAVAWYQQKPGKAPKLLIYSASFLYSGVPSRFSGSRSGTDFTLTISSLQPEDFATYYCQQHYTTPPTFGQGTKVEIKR
B9: Trastuzumab HCDR3 variant ARGYFGGYYFAY (Fab, V domains shown)
VH: B1 VH with Y99G, G101F, Y102G, Y103G, A105Y, D107A
VL: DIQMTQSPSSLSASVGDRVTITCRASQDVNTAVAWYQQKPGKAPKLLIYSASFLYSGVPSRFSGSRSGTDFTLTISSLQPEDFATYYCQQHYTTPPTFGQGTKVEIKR
B10: Trastuzumab HCDR3 variant ARFLYGSYYFDY (Fab, V domains shown)
VH: B1 VH with Y99F, Y100L, G101Y, Y102G, Y103S, A105Y
VL: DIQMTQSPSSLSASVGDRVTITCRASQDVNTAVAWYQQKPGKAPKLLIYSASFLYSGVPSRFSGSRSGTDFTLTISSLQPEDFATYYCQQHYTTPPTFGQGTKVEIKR
B11: Trastuzumab HCDR3 variant ARHGSYYYDFDF (Fab, V domains shown)
VH: B1 VH with Y99H, Y100G, G101S, A105D, Y108F
VL: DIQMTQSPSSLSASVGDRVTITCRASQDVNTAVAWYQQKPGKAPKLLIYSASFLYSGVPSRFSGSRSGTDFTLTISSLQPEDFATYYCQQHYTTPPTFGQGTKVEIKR
B12: Trastuzumab HCDR3 variant ARASWNWYGGDY (Fab, V domains shown)
VH: B1 VH with Y99A, Y100S, G101W, Y102N, Y103W, A105G, F106G
VL: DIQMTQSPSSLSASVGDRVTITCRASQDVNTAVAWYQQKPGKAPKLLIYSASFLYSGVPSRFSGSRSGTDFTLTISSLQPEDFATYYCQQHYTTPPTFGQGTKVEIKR
B13: Trastuzumab HCDR3 variant ARSGEGYYAFDY (Fab, V domains shown)
VH: B1 VH with Y99S, Y100G, G101E, Y102G
VL: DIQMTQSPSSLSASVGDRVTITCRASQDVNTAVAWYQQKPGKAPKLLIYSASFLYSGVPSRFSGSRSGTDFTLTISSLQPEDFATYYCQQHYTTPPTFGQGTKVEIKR
B14: Trastuzumab HCDR3 variant AKYGRSDYGFEH (Fab, V domains shown)
VH: B1 VH with R98K, Y100G, G101R, Y102S, Y103D, A105G, D107E, Y108H
VL: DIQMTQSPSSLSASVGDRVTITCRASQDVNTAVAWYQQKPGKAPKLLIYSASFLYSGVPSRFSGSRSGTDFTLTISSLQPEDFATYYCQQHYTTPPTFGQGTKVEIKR
B15: Trastuzumab HCDR3 variant ARYADYQFHFDN (Fab, V domains shown)
VH: B1 VH with Y100A, G101D, Y103Q, Y104F, A105H, Y108N
VL: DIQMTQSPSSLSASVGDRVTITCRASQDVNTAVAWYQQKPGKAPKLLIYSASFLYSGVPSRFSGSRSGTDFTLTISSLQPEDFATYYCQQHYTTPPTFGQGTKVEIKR
B16: Trastuzumab HCDR3 variant ALYKRYDYAFGY (Fab, V domains shown)
VH: B1 VH with R98L, Y100K, G101R, Y103D, D107G
VL: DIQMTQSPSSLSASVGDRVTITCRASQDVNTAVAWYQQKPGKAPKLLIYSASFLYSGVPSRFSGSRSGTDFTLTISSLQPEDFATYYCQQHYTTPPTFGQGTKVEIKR
B17: Trastuzumab HCDR3 variant ARWLYYGYYFDY (Fab, V domains shown)
VH: B1 VH with Y99W, Y100L, G101Y, Y103G, A105Y
VL: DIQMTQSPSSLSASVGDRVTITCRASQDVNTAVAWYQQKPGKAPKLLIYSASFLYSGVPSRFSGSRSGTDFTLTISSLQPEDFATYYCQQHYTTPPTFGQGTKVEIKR
B18: Trastuzumab HCDR3 variant ARYGGAGYYLDY (Fab, V domains shown)
VH: B1 VH with Y100G, Y102A, Y103G, A105Y, F106L
VL: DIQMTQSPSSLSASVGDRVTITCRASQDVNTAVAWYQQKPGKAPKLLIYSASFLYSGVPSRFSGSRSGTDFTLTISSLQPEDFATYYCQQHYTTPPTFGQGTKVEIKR
B19: Trastuzumab HCDR3 variant ARWSWPGYEFEF (Fab, V domains shown)
VH: B1 VH with Y99W, Y100S, G101W, Y102P, Y103G, A105E, D107E, Y108F
VL: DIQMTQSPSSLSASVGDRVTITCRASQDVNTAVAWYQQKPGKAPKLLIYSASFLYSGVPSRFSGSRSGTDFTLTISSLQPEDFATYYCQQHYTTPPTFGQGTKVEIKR
B20: Trastuzumab HCDR3 variant ARFPVSSYAYGF (Fab, V domains shown)
VH: B1 VH with Y99F, Y100P, G101V, Y102S, Y103S, F106Y, D107G, Y108F
VL: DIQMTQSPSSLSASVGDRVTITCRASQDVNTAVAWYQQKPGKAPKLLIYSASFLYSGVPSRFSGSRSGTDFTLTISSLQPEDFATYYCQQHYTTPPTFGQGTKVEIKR
B21: Trastuzumab HCDR3 variant ARNYYGSYYFDY (Fab, V domains shown)
VH: B1 VH with Y99N, G101Y, Y102G, Y103S, A105Y
VL: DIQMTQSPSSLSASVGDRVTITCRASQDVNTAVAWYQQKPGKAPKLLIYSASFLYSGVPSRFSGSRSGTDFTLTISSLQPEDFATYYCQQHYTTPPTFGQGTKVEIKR
B22: Trastuzumab HCDR3 variant ARASWYWYGGDK (Fab, V domains shown)
VH: B1 VH with Y99A, Y100S, G101W, Y103W, A105G, F106G, Y108K
VL: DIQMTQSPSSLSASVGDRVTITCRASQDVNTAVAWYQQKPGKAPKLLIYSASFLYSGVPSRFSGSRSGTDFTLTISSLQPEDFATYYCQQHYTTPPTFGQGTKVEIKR
B23: Trastuzumab HCDR3 variant AKYGTSNYGFSH (Fab, V domains shown)
VH: B1 VH with R98K, Y100G, G101T, Y102S, Y103N, A105G, D107S, Y108H
VL: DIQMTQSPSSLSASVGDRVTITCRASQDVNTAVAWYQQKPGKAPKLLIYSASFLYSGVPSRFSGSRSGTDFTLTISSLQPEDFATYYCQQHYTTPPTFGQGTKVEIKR
B24: Trastuzumab HCDR3 variant ARNYVYWYGMTV (Fab, V domains shown)
VH: B1 VH with Y99N, G101V, Y103W, A105G, F106M, D107T, Y108V
VL: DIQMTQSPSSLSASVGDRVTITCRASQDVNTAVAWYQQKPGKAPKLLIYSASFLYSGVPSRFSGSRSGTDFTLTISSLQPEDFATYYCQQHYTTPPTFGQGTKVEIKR
B25: Trastuzumab HCDR3 variant AKYGISDYGFDH (Fab, V domains shown)
VH: B1 VH with R98K, Y100G, G101I, Y102S, Y103D, A105G, Y108H
VL: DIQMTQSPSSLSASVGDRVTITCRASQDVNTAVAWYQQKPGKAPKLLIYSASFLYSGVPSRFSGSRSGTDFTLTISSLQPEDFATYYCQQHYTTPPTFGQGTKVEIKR
B26: Trastuzumab HCDR3 variant ARMSYYFYYMDY (Fab, V domains shown)
VH: B1 VH with Y99M, Y100S, G101Y, Y103F, A105Y, F106M
VL: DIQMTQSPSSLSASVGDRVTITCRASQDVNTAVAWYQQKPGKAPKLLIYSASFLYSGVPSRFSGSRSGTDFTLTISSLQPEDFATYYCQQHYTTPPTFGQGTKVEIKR
B27: Trastuzumab HCDR3 variant AAYGPQGYAFAV (Fab, V domains shown)
VH: B1 VH with R98A, Y100G, G101P, Y102Q, Y103G, D107A, Y108V
VL: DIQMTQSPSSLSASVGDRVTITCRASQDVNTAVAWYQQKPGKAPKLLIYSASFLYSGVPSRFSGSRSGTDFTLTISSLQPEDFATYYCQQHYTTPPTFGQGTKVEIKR
B28: Trastuzumab HCDR3 variant ARGYWWLYGFAY (Fab, V domains shown)
VH: B1 VH with Y99G, G101W, Y102W, Y103L, A105G, D107A
VL: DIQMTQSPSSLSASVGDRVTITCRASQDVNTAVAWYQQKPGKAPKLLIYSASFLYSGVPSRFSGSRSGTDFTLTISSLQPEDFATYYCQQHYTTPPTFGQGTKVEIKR
B29: Trastuzumab HCDR3 variant AKYAFGGWSYSP (Fab, V domains shown)
VH: B1 VH with R98K, Y100A, G101F, Y102G, Y103G, Y104W, A105S, F106Y, D107S, Y108P
VL: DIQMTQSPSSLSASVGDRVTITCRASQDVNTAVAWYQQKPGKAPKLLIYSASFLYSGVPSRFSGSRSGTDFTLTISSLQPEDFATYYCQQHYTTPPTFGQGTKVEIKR
B30: Trastuzumab HCDR3 variant ARYFGGSYAYGR (Fab, V domains shown)
VH: B1 VH with Y100F, Y102G, Y103S, F106Y, D107G, Y108R
VL: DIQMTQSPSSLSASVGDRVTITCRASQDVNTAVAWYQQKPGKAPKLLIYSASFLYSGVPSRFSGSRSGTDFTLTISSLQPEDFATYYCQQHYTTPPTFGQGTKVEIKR
B31: Trastuzumab HCDR3 variant ALLYGYYPSGVG (Fab, V domains shown)
VH: B1 VH with R98L, Y99L, Y104P, A105S, F106G, D107V, Y108G
VL: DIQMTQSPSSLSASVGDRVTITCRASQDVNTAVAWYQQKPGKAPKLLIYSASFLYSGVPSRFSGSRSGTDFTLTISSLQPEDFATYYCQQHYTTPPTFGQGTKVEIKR
B32: Trastuzumab HCDR3 variant AQSGSYFYPFSY (Fab, V domains shown)
VH: B1 VH with R98Q, Y99S, Y100G, G101S, Y103F, A105P, D107S
VL: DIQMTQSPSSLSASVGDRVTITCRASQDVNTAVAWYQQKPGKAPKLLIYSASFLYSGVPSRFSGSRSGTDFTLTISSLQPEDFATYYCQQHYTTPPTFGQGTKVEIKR
B33: Trastuzumab HCDR3 variant ARGYYHYYHYQY (Fab, V domains shown)
VH: B1 VH with Y99G, G101Y, Y102H, A105H, F106Y, D107Q
VL: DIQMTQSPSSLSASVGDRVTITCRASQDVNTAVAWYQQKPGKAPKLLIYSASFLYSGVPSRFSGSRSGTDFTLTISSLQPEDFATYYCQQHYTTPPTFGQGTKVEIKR
B34: Trastuzumab HCDR3 variant ARSEWFWGSFAY (Fab, V domains shown)
VH: B1 VH with Y99S, Y100E, G101W, Y102F, Y103W, Y104G, A105S, D107A
VL: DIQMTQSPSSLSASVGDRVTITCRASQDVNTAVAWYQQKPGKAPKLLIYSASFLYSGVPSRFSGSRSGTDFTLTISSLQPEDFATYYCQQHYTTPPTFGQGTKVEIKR
B35: Trastuzumab HCDR3 variant AAYWYGVYVFRY (Fab, V domains shown)
VH: B1 VH with R98A, Y100W, G101Y, Y102G, Y103V, A105V, D107R
VL: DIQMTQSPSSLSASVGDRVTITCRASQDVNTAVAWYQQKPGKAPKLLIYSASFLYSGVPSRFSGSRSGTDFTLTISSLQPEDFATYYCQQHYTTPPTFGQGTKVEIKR
B36: Trastuzumab HCDR3 variant ARHHYSGYFHDV (Fab, V domains shown)
VH: B1 VH with Y99H, Y100H, G101Y, Y102S, Y103G, A105F, F106H, Y108V
VL: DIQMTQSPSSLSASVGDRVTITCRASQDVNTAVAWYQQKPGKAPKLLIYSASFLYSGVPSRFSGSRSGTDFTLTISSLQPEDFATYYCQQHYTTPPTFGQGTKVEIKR
B37: Trastuzumab HCDR3 variant ARSTDYWHASQY (Fab, V domains shown)
VH: B1 VH with Y99S, Y100T, G101D, Y103W, Y104H, F106S, D107Q
VL: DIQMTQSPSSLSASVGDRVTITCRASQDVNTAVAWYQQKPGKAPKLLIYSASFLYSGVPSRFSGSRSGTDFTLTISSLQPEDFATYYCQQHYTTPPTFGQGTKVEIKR
B38: Trastuzumab HCDR3 variant ARTTISSSSYTG (Fab, V domains shown)
VH: B1 VH with Y99T, Y100T, G101I, Y102S, Y103S, Y104S, A105S, F106Y, D107T, Y108G
VL: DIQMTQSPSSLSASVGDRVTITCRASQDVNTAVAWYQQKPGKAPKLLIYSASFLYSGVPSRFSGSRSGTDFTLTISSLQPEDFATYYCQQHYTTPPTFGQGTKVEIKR
B39: Trastuzumab HCDR3 variant ARYGGGYNMDY (Fab, V domains shown)
VH: EVQLVESGGGLVQPGGSLRLSCAASGFNIKDTYIHWVRQAPGKGLEWVARIYPTNGYTRYADSVKGRFTISADTSKNTAYLQMNSLRAEDTAVYYCARYGGGYNMDYWGQGTLVTVSS
VL: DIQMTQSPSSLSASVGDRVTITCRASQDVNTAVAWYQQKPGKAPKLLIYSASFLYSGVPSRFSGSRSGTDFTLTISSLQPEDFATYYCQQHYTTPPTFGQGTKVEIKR
B40: Trastuzumab HCDR3 variant TRYGLTFDMDY (Fab, V domains shown)
VH: B39 VH with A97T, G101L, G102T, Y103F, N104D
VL: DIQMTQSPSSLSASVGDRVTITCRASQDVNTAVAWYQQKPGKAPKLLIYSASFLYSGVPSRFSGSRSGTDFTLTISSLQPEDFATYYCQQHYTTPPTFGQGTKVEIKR
B41: Trastuzumab HCDR3 variant TRWGGYYYFDY (Fab, V domains shown)
VH: B39 VH with A97T, Y99W, G102Y, N104Y, M105F
VL: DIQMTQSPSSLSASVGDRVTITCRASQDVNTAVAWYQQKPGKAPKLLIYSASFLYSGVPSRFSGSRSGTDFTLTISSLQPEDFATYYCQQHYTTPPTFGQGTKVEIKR
B42: Trastuzumab HCDR3 variant ARWEDYYYMDY (Fab, V domains shown)
VH: B39 VH with Y99W, G100E, G101D, G102Y, N104Y
VL: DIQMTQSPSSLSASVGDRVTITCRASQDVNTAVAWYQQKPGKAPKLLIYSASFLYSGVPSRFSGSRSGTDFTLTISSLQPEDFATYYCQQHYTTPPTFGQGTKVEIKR
B43: Trastuzumab HCDR3 variant VRFYYDYYFDY (Fab, V domains shown)
VH: B39 VH with A97V, Y99F, G100Y, G101Y, G102D, N104Y, M105F
VL: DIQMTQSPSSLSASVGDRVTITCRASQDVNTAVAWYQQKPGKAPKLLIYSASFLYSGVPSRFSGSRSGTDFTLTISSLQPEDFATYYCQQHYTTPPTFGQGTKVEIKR
B44: Trastuzumab HCDR3 variant ARWYVSYDYDV (Fab, V domains shown)
VH: B39 VH with Y99W, G100Y, G101V, G102S, N104D, M105Y, Y107V
VL: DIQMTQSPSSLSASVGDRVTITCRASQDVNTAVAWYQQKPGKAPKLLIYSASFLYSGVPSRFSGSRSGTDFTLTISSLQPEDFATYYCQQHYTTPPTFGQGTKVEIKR
B45: Trastuzumab HCDR3 variant APYGPGYWYGV (Fab, V domains shown)
VH: B39 VH with R98P, G101P, N104W, M105Y, D106G, Y107V
VL: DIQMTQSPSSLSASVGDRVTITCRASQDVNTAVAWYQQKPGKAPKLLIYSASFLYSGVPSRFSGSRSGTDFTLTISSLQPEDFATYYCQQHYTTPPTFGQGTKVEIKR
B46: Trastuzumab HCDR3 variant VRYGNSYYYDY (Fab, V domains shown)
VH: B39 VH with A97V, G101N, G102S, N104Y, M105Y
VL: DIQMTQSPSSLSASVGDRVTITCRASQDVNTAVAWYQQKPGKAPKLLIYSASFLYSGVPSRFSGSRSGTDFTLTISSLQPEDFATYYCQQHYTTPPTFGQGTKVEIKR
B47: Trastuzumab HCDR3 variant VRYYGDGGYYFDY (Fab, V domains shown)
VH: EVQLVESGGGLVQPGGSLRLSCAASGFNIKDTYIHWVRQAPGKGLEWVARIYPTNGYTRYADSVKGRFTISADTSKNTAYLQMNSLRAEDTAVYYCVRYYGDGGYYFDYWGQGTLVTVSS
VL: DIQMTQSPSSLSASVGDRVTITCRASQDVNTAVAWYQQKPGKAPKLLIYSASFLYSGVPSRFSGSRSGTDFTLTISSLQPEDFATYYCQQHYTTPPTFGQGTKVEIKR
B48: Trastuzumab HCDR3 variant ARYYYGYGGYYFDY (Fab, V domains shown)
VH: EVQLVESGGGLVQPGGSLRLSCAASGFNIKDTYIHWVRQAPGKGLEWVARIYPTNGYTRYADSVKGRFTISADTSKNTAYLQMNSLRAEDTAVYYCARYYYGYGGYYFDYWGQGTLVTVSS
VL: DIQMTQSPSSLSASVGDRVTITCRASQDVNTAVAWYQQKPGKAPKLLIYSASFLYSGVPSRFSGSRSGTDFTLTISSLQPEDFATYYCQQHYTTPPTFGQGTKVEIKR
B49: Trastuzumab HCDR3 variant TRYYDGAGPYYMDY (Fab, V domains shown)
VH: B48 VH with A97T, Y101D, Y103A, G105P, F108M
VL: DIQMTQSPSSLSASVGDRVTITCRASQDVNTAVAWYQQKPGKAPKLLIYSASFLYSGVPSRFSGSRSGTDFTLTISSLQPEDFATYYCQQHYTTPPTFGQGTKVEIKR
B50: Trastuzumab HCDR3 variant ARYGYAPGFYYMDV (Fab, V domains shown)
VH: B48 VH with Y100G, G102A, Y103P, G105F, F108M, Y110V
VL: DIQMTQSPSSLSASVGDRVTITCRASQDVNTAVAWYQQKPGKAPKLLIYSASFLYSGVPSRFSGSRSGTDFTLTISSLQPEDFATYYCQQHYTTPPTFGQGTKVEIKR

Each binder was assayed against human epidermal growth factor receptor 2 (HER2) extracellular domain (human, UniProt P04626 23-629) (assay: SPR).

Binder | Kd [nM] | log(KD (M))
B1 | 46.3 | -7.33 log(M)
B2 | 43.1 | -7.37 log(M)
B3 | 30.3 | -7.52 log(M)
B4 | 33.8 | -7.47 log(M)
B5 | 202 | -6.7 log(M)
B6 | 35.4 | -7.45 log(M)
B7 | 33.6 | -7.47 log(M)
B8 | 39.6 | -7.4 log(M)
B9 | 130 | -6.88 log(M)
B10 | 135 | -6.87 log(M)
B11 | 56.6 | -7.25 log(M)
B12 | 92.9 | -7.03 log(M)
B13 | 210 | -6.68 log(M)
B14 | 133 | -6.88 log(M)
B15 | 39.6 | -7.4 log(M)
B16 | 86.6 | -7.06 log(M)
B17 | 28 | -7.55 log(M)
B18 | 32.4 | -7.49 log(M)
B19 | 177 | -6.75 log(M)

Binder | Kd [nM] | log(KD (M))
B20 | 36.2 | -7.44 log(M)
B21 | 120 | -6.92 log(M)
B22 | 37.8 | -7.42 log(M)
B23 | 27.6 | -7.56 log(M)
B24 | 27.5 | -7.56 log(M)
B25 | 207 | -6.68 log(M)
B26 | 48.9 | -7.31 log(M)
B27 | 33.8 | -7.47 log(M)
B28 | 172 | -6.77 log(M)
B29 | 37.7 | -7.42 log(M)
B30 | 28 | -7.55 log(M)
B31 | 262 | -6.58 log(M)
B32 | 83.2 | -7.08 log(M)
B33 | 95.1 | -7.02 log(M)
B34 | 114 | -6.94 log(M)
B35 | 113 | -6.95 log(M)
B36 | 148 | -6.83 log(M)
B37 | 179 | -6.75 log(M)
B38 | 248 | -6.61 log(M)

These binders were tested against T1, HER2 (human epidermal growth factor receptor 2) (human, UniProt P04626 23-629) (assay: SPR).
T1 construct: also called Antigen: HER2

Binder | Kd | log(KD (M))
B39 | 14.3 nM | -7.84
B40 | 13.9 nM | -7.86
B41 | 9.79 nM | -8.01
B42 | 21.8 nM | -7.66
B43 | 26.9 nM | -7.57
B44 | 17.6 nM | -7.75
B45 | 9.15 nM | -8.04
B46 | 26.9 nM | -7.57
B47 | 5.35 nM | -8.27
B48 | 15 nM | -7.82
B49 | 23.7 nM and 23.6 nM | -7.63
B50 | 9.72 nM | -8.01
